{"source": "patent US20190225675A1", "about": "(TUFTS UNIVERSITY, published 2019)", "key": {"[1]": {"target": "Clostridium difficile toxin B (TcdB) (Clostridium difficile, UniProt P18177 2-2366)", "sequence (P18177 2-2366)": "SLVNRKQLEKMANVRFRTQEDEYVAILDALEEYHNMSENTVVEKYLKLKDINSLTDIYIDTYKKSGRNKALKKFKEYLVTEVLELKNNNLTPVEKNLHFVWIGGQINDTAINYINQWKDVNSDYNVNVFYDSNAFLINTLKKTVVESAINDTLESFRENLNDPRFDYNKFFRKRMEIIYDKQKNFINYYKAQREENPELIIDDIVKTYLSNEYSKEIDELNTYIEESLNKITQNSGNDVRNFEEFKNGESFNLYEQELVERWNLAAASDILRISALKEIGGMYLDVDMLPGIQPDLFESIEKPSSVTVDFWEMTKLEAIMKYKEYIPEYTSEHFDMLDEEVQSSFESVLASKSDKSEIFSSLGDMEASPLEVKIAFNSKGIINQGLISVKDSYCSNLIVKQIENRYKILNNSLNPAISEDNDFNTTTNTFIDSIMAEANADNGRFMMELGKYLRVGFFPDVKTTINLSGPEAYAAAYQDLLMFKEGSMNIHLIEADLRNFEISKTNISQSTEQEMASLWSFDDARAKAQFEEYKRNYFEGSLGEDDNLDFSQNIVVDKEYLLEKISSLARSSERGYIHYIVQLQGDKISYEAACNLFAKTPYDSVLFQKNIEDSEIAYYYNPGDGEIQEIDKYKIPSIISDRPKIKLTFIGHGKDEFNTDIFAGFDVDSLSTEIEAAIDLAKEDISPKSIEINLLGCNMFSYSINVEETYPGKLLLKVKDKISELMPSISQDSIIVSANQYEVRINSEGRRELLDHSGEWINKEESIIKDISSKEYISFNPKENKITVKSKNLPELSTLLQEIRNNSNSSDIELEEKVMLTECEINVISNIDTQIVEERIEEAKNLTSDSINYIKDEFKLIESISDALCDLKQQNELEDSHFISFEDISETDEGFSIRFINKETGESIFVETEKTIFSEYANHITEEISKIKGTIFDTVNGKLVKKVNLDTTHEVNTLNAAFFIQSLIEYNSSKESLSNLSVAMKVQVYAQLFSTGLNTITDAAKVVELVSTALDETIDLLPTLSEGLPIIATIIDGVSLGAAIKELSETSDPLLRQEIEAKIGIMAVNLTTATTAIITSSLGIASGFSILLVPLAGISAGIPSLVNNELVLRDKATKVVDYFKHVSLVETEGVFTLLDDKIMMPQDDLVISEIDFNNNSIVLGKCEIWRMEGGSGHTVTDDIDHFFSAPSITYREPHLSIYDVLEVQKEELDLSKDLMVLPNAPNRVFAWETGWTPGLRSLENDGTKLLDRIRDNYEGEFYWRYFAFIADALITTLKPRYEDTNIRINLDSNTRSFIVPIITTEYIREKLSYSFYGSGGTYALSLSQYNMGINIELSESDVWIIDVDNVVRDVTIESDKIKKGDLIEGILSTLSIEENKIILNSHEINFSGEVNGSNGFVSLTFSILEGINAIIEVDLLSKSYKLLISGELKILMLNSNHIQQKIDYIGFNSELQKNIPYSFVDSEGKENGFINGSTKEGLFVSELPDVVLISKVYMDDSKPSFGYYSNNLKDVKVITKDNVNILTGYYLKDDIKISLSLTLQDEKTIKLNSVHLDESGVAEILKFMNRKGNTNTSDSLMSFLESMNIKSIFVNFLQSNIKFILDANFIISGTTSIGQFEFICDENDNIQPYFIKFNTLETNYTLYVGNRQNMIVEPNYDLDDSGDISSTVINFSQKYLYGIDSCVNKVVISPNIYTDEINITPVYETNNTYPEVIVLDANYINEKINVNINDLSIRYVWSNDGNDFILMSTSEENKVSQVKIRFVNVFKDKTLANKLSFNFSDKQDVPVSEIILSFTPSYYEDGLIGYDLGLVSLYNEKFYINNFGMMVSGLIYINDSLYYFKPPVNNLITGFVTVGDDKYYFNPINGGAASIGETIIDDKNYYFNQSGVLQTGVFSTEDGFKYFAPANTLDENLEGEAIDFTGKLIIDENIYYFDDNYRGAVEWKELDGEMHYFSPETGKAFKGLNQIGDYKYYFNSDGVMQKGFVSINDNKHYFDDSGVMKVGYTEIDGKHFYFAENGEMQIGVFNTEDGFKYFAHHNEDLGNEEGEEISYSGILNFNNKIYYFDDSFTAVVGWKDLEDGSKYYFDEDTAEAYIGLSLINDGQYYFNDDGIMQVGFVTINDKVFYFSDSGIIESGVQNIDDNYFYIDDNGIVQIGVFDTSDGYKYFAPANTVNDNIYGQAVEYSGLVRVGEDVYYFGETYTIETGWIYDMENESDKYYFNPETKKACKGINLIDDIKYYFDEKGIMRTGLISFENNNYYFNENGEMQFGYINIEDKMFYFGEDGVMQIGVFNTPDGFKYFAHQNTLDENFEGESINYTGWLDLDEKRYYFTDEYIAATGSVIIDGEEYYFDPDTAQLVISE"}, "[2]": {"target": "T1, Clostridium difficile toxin A (TcdA) (Clostridium difficile, UniProt P16154 1-2710)", "T1 construct": "mature", "T1 sequence (P16154 whole entry)": "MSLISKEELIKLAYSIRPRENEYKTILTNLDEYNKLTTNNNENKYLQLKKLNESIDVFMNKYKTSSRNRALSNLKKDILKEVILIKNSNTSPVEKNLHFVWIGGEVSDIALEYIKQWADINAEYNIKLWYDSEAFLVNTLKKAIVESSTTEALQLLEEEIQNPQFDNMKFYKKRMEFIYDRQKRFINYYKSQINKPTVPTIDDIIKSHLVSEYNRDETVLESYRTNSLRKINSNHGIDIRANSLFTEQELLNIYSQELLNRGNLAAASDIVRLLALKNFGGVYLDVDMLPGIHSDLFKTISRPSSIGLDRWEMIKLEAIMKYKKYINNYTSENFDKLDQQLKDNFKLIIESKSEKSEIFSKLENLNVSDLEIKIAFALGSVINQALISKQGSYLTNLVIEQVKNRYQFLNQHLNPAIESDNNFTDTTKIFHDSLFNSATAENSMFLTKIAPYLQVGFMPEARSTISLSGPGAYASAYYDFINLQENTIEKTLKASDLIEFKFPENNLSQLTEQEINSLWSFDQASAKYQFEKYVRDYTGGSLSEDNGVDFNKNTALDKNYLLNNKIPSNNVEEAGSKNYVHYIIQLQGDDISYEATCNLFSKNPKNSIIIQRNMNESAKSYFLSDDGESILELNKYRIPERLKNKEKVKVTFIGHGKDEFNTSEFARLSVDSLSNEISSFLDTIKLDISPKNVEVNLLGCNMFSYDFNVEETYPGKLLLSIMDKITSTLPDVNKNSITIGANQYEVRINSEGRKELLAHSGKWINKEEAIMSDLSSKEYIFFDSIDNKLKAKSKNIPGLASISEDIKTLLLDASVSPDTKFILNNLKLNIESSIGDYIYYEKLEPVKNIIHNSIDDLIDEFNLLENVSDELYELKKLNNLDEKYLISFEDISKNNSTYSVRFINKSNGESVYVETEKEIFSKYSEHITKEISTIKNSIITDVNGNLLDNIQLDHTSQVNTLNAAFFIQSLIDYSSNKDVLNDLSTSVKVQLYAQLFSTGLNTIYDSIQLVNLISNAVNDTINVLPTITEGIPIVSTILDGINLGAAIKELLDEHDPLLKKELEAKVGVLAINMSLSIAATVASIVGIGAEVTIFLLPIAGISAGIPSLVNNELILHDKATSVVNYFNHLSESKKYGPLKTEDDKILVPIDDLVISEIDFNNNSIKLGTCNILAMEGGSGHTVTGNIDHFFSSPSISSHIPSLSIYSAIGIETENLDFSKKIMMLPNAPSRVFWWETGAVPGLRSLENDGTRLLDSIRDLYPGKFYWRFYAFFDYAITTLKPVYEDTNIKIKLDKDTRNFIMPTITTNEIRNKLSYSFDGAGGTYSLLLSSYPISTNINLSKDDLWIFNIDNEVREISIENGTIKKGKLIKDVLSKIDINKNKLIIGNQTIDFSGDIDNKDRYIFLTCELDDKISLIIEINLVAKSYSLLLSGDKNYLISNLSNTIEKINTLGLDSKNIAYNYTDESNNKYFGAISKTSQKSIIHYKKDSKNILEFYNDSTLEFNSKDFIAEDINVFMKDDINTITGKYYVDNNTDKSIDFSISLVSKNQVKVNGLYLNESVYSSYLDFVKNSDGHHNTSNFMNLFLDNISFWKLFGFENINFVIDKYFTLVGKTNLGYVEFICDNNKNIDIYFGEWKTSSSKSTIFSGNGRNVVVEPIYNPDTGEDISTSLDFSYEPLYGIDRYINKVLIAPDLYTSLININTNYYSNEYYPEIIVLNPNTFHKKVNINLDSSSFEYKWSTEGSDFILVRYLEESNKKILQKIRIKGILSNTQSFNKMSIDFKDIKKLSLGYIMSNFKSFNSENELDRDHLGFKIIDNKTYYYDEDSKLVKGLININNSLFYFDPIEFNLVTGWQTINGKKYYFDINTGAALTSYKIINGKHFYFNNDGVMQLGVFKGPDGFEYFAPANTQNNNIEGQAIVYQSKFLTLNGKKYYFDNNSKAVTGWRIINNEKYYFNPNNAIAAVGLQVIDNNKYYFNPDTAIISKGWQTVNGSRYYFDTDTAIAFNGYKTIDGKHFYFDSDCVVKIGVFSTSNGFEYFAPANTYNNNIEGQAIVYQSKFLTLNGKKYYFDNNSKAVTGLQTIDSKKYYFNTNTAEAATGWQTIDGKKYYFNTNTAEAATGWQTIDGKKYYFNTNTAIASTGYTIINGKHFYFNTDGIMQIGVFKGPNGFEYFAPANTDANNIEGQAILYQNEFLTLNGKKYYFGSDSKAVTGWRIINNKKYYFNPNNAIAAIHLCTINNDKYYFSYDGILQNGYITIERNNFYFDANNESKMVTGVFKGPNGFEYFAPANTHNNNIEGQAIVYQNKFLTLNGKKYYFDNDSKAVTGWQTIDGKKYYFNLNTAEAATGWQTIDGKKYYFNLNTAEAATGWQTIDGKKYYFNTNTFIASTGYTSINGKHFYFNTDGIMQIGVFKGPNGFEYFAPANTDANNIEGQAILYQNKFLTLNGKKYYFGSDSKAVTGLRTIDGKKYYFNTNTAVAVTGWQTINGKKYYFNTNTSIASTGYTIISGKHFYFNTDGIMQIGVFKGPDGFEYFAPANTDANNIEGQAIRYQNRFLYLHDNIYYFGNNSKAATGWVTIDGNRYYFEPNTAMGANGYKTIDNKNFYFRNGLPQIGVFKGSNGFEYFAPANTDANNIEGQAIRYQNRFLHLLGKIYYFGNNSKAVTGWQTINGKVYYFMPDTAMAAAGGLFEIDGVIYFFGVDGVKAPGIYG", "assay": "ELISA on plates coated with TcdA, HRP-conjugated detection antibody, A450"}}}
{"binder": "VNA-TcdB (toxin B-binding heterodimer, 5D+E3) (other) QGVQSQLQLVESGGGLVQPGGSLRLSCEASGFTLDYYGIGWFRQPPGKEREAVSYISASARTILYADSVKGRFTISRDNAKNAVYLQMNSLKREDTAVYYCARRRFSASSVNRWLADDYDVWGRGTQVAVSSEPKTPKPQGGGGSGGGGSGGGGSQGVQSQVQLVESGGGLVQTGGSLRLSCASSGSIAGFETVTWSRQAPGKSLQWVASMTKTNNEIYSDSVKGRFIISRDNAKNTVYLQMNSLKPEDTGVYFCKGPELRGQGIQVTVSSEPKTPKPQ", "values": [{"measurement": "EC50 (read off the curve)", "setting": "[1]", "result": "~0.3", "unit": "nM"}, {"measurement": "binding result", "setting": "[2]", "result": "no binding (tested: 125 nM)"}]}
